Experimental data taken from article PMC10754921.

Biological target: FMC63-scFv (VL - Whitlow linker - VH, C-terminal His8 tag) (mouse)
Experiment: SEC-MALS; 25 µg injected, Superdex 200 Increase 10/300 GL, PBS with additional 200 mM NaCl, pH 7.4, 25 °C

- percent dimers: 20%
- stoichiometry N: 2
Substance: FMC63-scFv (VL - Whitlow linker - VH, C-terminal His8 tag)
